Where no end group is shown, it is not given here.
Columns and labels:
Type in all cases: physicochemical
[1] = Differential scanning calorimetry (DSC) of micelles; conditions: heating from 5° C. to 85° C.; solutions incubated at 20° C. for 16 hrs; FIG. 21A
Experimental: DSC was performed on a VP-MicroCal calorimeter (GE). ˜600 μl of sample and buffer were loaded into two parallel stainless steel cells that were sealed tightly under the pressure of ˜27 psi to prevent water evaporation during the heating cycle. The temperature was increased from 5° to 85° C. at a rate of 1° C./min, with a 15 min equilibration time at 5° C. DSC thermograms were obtained after concentration normalization and baseline correction using the Origin software provided by the MicroCal.

[2] = Particle size of self-assembled nanoparticles (TEM); conditions: for Particle Size: particles self-assembled from the conjugate, Table 1
Experimental: Lyophilized peptide-polymer conjugates were dissolved in phosphate buffer (pH=8) at a concentration of 10 mg/ml (˜1.5 mM). Upon sonication for 30 s, solutions were diluted to 1 mg/ml (0.15 mM) or 0.1 mg/ml in phosphate buffer (pH=8). 5 μl of the diluted peptide solution were applied to a discharged holey carbon-coated copper grid (Ted Pella Cu 400 mesh 01824) for 4 minutes before absorbing off excess solution using filter paper (Whatman filter paper 1). The sample on the grid was negatively stained with a 5 μl 2% (w/v) phosphotungstic acid (adjusted to pH=3.3 with 1 M NaOH) for 2 minutes. Excess stain solution was wicked off. After complete drying, grids were examined by TEM at 120 kV (Philips/FEI Tecnai 12).
Lyophilized peptide powder was dissolved at 1 mg/ml in 25 mM phosphate buffer at pH 7.4. 5 μl of peptide solution was dropped on a discharged holey carbon coated grid (Ted Pella 01824). After removing excess peptide solution, 5 μl of phosphotungstic acid (2 wt %, pH=3.3) solution was then applied for 2 minutes. Samples were dried in air and examined by a FEI Tecnai 12 transmission electron microscope at 120 kV.

[3] = Circular dichroism (CD), peptide helicity; conditions: CD spectra, same conditions, FIG. 31
Experimental: Temperature dependent CD measurements were made on a Jasco J810 spectropolarimeter. CD spectra were collected from 260 to 190 nm at 0.2 nm intervals, a rate of a 100 nm/min, a response time of 4 s, and a bandwidth of 1 nm. Temperature melt curves were measured using ˜200 μM solutions. The ellipticity was monitored at 222 nm as the temperature increased from 5° to 95° C. in 5° C. increments at a rate of 1° C./min, with a 1 min equilibration time at each temperature before the measurement was taken. One hundred percent helicity was estimated using the formula [θ]222=40,000[…][1−(2.5/n)].

Conjugate 14: dC16 lipid, random coil control peptide SR (SEQ ID NO: 4), PEG2K (EGKAGEKAGAALKCGVQELEKGAEAGEGGW; also: dC16 lipid, place not given here, PEG2K, place not given here)
DSC melting temperature / endothermic peak centre [1]: 42 °C
Particle Size [2]: 10-15 nm
helical content [3]: less than 5%

Conjugate 8: dC16 lipid, heme-binding 4-helix peptide BB (SEQ ID NO: 2), PEG2K (GGGEIWKLHEEFLCKFEELLKLHEERLKKM; also: dC16 lipid, place not given here, PEG2K, place not given here)
particle/micelle diameter ([2]; TEM for conjugate 15): ~12 nm
Particle Size [2]: 10-15 nm
